The Kd is the constant that tells how readily two partners part at equilibrium. Lower therefore signals a tighter complex.

Here are results for 29 molecules from patent US20260285997 (published 2026).

Sequences and labels used below:
B1: BEAT 2b1 CD206 arm (antibody, V domains shown)
VH: EVQLVQSGAEVKKPGESLRISCKGSGDSFTTYWIGWVRQMPGKGLEWMGIIYPGDSDTIYSPSFQGQVTISADKSISTAYLQWSSLKASDTAMYYCTRGDRGVDYWGQGTLVTVSS
VL: DIQMTQSPSSLSASVGDRVTITCRASQGISRWLAWYQQKPEKAPKSLIYAASSLQSGVPSRFSGSGSGTDFTLTISGLQPEDFATYYCQQYNSYPRTFGQGTKVEIK
B2: BEAT 2a5 CD206 arm (antibody, V domains shown)
VH: B1 VH
VL: B1 VL
B3: anti-CD206 IgG1 (antibody, V domains shown)
VH: B1 VH
VL: B1 VL
B4: BEAT 2a6 CD206 arm (antibody, V domains shown)
VH: B1 VH
VL: B1 VL
B5: BEAT 2a8 CD206 arm (antibody, V domains shown)
VH: B1 VH
VL: B1 VL
B6: BEAT 2b2 CD206 arm (antibody, V domains shown)
VH: B1 VH
VL: B1 VL
B7: BEAT 2a2 CD206 arm (antibody, V domains shown)
VH: B1 VH
VL: B1 VL
B8: BEAT 2a3 CD206 arm (antibody, V domains shown)
VH: B1 VH
VL: B1 VL
B9: BEAT 2b4 CD206 arm (antibody, V domains shown)
VH: B1 VH
VL: B1 VL
B10: BEAT 2b3 CD206 arm (antibody, V domains shown)
VH: B1 VH
VL: B1 VL
B11: BEAT 2a4 CD206 arm (antibody, V domains shown)
VH: B1 VH
VL: B1 VL
B12: BEAT 2a7 CD206 arm (antibody, V domains shown)
VH: B1 VH
VL: B1 VL
B13: BEAT 1a6 FLAG arm (antibody)
chain: QVQLVQSGAEVKKPGASVKVSCKASGYSFTTYTIHWVRQAPGQGLEWIGYINPSSGYAAYNQKFQGRVTLTADKSTSTAYMELSSLRSEDTAVYYCAREKFYGYDYWGQGTTVTVSSGGGGSGGGGSGGGGSGGGGASDVVMTQSPDSLAVSLGERATINCKSSQSIVHRNGNTYLEWYQQKPGQPPKLLIYKVSNRFSGVPDRFSGSGSGTDFTLTISSLQAEDVAVYYCFQGSHVPYTFGGGTKLEIK
B14: BEAT 1a5 FLAG arm (antibody)
chain: B13 chain
B15: BEAT 1a7 FLAG arm (antibody)
chain: B13 chain
B16: BEAT 1a1 FLAG arm (antibody)
chain: DVVMTQSPDSLAVSLGERATINCKSSQSIVHRNGNTYLEWYQQKPGQPPKLLIYKVSNRFSGVPDRFSGSGSGTDFTLTISSLQAEDVAVYYCFQGSHVPYTFGGGTKLEIKGGGGSGGGGSGGGGSQVQLVQSGAEVKKPGASVKVSCKASGYSFTTYTIHWVRQAPGQGLEWIGYINPSSGYAAYNQKFQGRVTLTADKSTSTAYMELSSLRSEDTAVYYCAREKFYGYDYWGQGTTVTVSS
B17: BEAT 1a3 FLAG arm (antibody)
chain: B16 chain
B18: BEAT 1a4 FLAG arm (antibody)
chain: B16 chain
B19: BEAT 1a2 FLAG arm (antibody)
chain: B16 chain
B20: BEAT 1a1 CD40 arm (antibody, V domains shown)
VH: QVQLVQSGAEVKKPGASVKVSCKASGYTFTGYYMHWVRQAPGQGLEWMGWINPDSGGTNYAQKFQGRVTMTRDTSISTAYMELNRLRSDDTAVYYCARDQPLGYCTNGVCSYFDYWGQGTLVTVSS
VL: DIQMTQSPSSVSASVGDRVTITCRASQGIYSWLAWYQQKPGKAPNLLIYTASTLQSGVPSRFSGSGSGTDFTLTISSLQPEDFATYYCQQANIFPLTFGGGTKVEIK
B21: BEAT 1a2 CD40 arm (antibody, V domains shown)
VH: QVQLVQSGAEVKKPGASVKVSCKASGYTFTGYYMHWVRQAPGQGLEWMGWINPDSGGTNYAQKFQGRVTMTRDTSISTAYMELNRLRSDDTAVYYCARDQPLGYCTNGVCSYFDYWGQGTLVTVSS
VL: B20 VL
B22: BEAT 1b4 CD40 arm (antibody, V domains shown)
VH: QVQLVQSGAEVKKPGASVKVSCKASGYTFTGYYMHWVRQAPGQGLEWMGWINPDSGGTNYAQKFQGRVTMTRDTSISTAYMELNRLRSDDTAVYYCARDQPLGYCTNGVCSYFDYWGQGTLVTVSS
VL: B20 VL
B23: anti-CD40 IgG2 (antibody, V domains shown)
VH: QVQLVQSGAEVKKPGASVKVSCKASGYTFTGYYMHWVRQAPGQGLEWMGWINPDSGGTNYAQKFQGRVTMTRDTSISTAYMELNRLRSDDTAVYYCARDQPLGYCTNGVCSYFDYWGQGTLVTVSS
VL: B20 VL
B24: BEAT 1b2 CD40 arm (antibody, V domains shown)
VH: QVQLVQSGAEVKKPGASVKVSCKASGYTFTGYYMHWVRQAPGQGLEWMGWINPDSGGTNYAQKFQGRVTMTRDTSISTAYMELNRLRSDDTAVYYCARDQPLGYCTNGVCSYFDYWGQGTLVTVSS
VL: B20 VL
B25: BEAT 1a6 CD40 arm (antibody, V domains shown)
VH: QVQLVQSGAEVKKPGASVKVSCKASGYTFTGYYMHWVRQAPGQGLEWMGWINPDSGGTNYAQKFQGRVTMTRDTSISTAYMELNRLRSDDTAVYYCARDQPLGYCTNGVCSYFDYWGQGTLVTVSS
VL: B20 VL
B26: BEAT 1a5 CD40 arm (antibody, V domains shown)
VH: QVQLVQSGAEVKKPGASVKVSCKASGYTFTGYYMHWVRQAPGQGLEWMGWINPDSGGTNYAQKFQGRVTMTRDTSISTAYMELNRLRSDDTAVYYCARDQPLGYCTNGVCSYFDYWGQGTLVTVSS
VL: B20 VL
B27: BEAT 1a3 CD40 arm (antibody, V domains shown)
VH: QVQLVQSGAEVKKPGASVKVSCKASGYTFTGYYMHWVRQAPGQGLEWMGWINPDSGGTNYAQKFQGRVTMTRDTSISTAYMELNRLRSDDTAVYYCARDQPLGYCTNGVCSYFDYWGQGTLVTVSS
VL: B20 VL
B28: BEAT 1b1 CD40 arm (antibody, V domains shown)
VH: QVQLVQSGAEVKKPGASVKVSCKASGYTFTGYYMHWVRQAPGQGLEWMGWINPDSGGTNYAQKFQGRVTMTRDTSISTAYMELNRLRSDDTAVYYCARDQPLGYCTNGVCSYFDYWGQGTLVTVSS
VL: B20 VL
B29: BEAT 1a4 CD40 arm (antibody, V domains shown)
VH: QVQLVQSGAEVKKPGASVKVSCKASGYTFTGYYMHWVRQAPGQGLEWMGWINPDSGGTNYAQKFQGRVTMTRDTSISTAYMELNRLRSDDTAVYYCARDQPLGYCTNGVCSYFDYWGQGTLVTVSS
VL: B20 VL

Where “and” joins values, the source holds several entries; their conditions need not be identical. Identical values can stand only once.

The first test has as its target T1, CD206 (human, UniProt P22897).
T1 chain: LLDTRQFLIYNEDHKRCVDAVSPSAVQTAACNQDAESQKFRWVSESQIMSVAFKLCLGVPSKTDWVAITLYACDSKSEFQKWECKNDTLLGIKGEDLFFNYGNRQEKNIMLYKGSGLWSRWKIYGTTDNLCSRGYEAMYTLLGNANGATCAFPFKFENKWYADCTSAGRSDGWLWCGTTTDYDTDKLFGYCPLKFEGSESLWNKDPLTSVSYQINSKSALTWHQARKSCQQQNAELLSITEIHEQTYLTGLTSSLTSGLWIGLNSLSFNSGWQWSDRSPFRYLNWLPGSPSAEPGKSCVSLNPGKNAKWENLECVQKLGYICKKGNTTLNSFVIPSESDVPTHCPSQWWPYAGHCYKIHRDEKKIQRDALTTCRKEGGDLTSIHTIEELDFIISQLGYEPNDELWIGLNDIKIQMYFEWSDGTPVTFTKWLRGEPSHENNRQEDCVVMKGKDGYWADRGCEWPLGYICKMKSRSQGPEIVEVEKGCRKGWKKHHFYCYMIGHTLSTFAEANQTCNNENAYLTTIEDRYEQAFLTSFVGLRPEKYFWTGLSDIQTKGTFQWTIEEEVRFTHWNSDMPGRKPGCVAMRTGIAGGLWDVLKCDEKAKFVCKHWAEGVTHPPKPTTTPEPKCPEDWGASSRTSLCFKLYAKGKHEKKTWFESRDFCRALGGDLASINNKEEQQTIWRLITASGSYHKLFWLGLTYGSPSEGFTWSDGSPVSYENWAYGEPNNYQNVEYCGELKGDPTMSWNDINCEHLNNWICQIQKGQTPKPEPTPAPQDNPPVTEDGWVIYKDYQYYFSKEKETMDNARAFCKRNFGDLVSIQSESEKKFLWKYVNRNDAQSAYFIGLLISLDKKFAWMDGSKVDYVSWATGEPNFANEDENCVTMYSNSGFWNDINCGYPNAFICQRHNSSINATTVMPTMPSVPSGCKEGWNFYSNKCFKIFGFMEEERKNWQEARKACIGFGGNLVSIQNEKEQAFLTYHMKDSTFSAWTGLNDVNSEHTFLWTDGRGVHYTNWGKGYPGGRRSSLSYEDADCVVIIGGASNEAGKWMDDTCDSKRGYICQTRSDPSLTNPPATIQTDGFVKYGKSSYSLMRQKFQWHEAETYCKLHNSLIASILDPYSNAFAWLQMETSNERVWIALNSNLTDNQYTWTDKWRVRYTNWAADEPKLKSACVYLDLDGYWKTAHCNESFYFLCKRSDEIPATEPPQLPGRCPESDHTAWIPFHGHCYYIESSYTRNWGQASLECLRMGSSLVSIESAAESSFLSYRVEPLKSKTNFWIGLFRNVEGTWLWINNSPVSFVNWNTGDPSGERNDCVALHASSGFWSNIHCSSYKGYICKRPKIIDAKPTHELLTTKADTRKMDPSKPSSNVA
Nature of the test: SPR. On the technique in general: In SPR one partner is held on a chip, and binding of the other changes the refractive index at the surface.
As for B1, the Kd is 27.8 nM and 47 nM.
For the molecule B2, the Kd is 30.1 nM and 32.7 nM.
With B3, the Kd is 11.2 nM and 10.3 nM and 10.5 nM and 11.1 nM.
On to B4, for which the Kd is 10.3 nM and 10.4 nM.
As for B5, the equilibrium dissociation constant (Kd) was 15.8 nM and 15.6 nM.
B6: the equilibrium dissociation constant (Kd) was 12.7 nM and 13.4 nM.
Still for that read-out and setting: under B7 stands 11.8 nM and 9.48 nM.
On to B8, for which the Kd was 22.2 nM and 23.6 nM.
Consider B9, for which the Kd is 14 nM and 12.4 nM.
B10: the Kd was 20.1 nM and 21.3 nM.
As to B11, the dissociation constant (Kd) is 10.3 nM and 11.9 nM.
Consider B12, for which the Kd was 15.9 nM and 14.3 nM.

Another test has as its target FLAG-BAP (FLAG tag fused to bacterial alkaline phosphatase). Nature of the test: SPR.
Turning to B13, the Kd was 15.5 nM and 27.4 nM.
Still for that read-out and setting: then B14, with 21.9 nM and 15.4 nM; and B15, with 10.9 nM and 13.5 nM and 7.81 nM.
On the same count and under the same terms, then B16, with 0.671 nM and 0.798 nM; and B17, with 1.22 nM and 1.24 nM and 1.65 nM.
Same read-out and setting: under B18 stands 6.9 nM and 5.04 nM; under B19, 1.26 nM and 1.99 nM.

The target of the next test is CD40 (human, UniProt P25942). Nature of the test: SPR.
Sequence of CD40 (P25942 21-193): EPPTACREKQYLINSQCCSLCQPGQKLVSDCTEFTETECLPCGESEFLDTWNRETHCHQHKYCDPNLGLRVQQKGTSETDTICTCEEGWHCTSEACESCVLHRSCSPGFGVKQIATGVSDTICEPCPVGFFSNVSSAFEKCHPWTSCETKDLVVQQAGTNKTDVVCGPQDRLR
On to B20, for which the Kd is 0.574 nM and 0.572 nM and 0.585 nM.
The same measure, in the same setting: then B21, with 0.471 nM and 0.534 nM; and B22, with 0.487 nM and 0.496 nM; and B23, with 0.535 nM and 0.7 nM.
The same measure, in the same setting: under B24 stands 0.444 nM and 0.295 nM.
Consider B25, for which the Kd was 0.371 nM and 0.394 nM.
Still for that read-out and setting: under B26 stands 0.988 nM and 0.986 nM.
As for B27, the Kd is 0.957 nM and 0.975 nM.
For B28, the Kd was 0.379 nM and 0.62 nM.
On the same count and under the same terms, under B29 stands 0.444 nM and 0.391 nM and 0.467 nM.
